According to US20250297026A1 (PETMEDIX, published 2025):

T1: canine CD20 (UniProt Q3C2E2 1-297)
T1 chain: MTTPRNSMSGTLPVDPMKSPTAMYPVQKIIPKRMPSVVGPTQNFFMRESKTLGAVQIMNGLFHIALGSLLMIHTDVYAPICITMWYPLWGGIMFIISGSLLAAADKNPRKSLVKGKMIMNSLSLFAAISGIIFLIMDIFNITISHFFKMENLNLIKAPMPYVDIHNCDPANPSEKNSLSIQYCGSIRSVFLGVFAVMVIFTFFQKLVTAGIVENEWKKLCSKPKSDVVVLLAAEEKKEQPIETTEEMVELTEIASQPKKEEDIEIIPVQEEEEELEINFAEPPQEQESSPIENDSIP

T2: canine CD20 (canine, UniProt Q3C2E2 1-297)
T2 chain: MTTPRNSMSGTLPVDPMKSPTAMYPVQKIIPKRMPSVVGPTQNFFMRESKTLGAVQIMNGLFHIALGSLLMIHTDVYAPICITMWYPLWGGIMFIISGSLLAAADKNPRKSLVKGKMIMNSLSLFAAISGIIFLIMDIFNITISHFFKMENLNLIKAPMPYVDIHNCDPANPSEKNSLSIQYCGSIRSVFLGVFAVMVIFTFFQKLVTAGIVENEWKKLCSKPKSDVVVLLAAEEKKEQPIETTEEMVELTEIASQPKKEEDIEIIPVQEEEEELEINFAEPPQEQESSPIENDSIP


How the values were obtained:
canine CD20 [1] = biological target: T1, canine CD20; assay: flow cytometry, cCD20-expressing MDCK II cells; apparent Kd (EC50 of binding)
canine CD20 [2] = biological target: T2, canine CD20; assay: cell-based or functional assay
canine CD20 [3] = biological target: T2, canine CD20; assay: flow cytometry on cCD20-expressing MDCK II cells, 10 ug/ml antibody, FITC anti-canine IgG (FIG. 3A)
Experimental: FIG. 3. Binding assessment of anti-canine CD20 mAbs using flow cytometry. PMX001, PMX002, PMX003, PMX004, PMX005, 1 E4-cIGGB, 4E1-7-clGGB (see A) and PMX006, PMX007, PMX008, PMX009, PMX010, PMX011 (see B) and PMX003, PMX066, PMX067, PMX069, PMX070, PMX071, PMX072, PMX073, PMX074, PMX075, PMX076, PMX077, PMX078, PMX079, PMX080, PMX081, 1E4-cIGGB, 4E1-7-clGGB (see C) were applied to cCD20-expressing MDCK II cells at 10 μg/ml. Rituximab-clGGB (grey shadow) was used as the isotype control and presented in each plot. (D) Affinity determination of PMX003, PMX115 and PMX070 mAbs. Binding of 1:2 serially diluted antibodies to cCD20-expressing MDCK II cells was assessed in a binding assay and the mean values of the fluorophore signal was determined. The plot of mean fluorescence intensity (MFI) versus concentration was used to determine EC50 of binding, using non-linear regression, which is the apparent Kd of antibody binding to cell surface expressed canine CD20.
HEK293 cells or MDCK II cells were stably transfected with a vector encoding the full length of canine CD20 cDNA. Binding of antibodies to these cells were assessed using flow cytometry. […] Cells incubated with anti-canine IgG FITC secondary antibody and without primary anti-canine CD20 antibody, or with isotype control primary antibody, were used as negative controls. The data were acquired on either a Beckman Coulter CytoFLEX or a BD Accuri C6 Plus flow cytometer and analysed using FlowJo software. […] Graphs using mean fluorescence intensity (MFI) values of the FITC channel vs concentration of antibody were plotted in GraphPad Prism (FIG. 3D).

Row | Kd (canine CD20 [1]) [nM] | ADCC EC50 (canine CD20 [2]) [nM] | CDC EC50 (canine CD20 [2]) [nM] | binding result (canine CD20 [3]) | Binder | ADCC Maximum killing (%) (canine CD20 [2]) | CDC Maximum killing (%) (canine CD20 [2])
1 | – | – | – | binds | PMX002 mAb (antibody, V domains shown, Fully canine mAb with dog IGGB and dog IGLC5 constant regions; Expressed in CHO cells) VH: EVQLVESGGDLVKPGGSLRLSCVASGIIFSNYHMSWVRQVPGKGLQWVAYINSGGSTINYADGVKGRFTISRDNAKNSLYLQMNSLRGEDTAVYYCTTYDSWGQGTLVTVSS VL: SYVLTQLPSKNVTLKQPAHITCGGDNIGSKSVHWYQQKLGQAPVLIIYYDSSRPTGIPERFSGANSGNTATLTISGALAEDEADYYCQVWDSSVNVFGGGTHLTVLG | – | –
2 | – | – | – | binds | PMX005 mAb (antibody, V domains shown, Fully canine mAb with dog IGGB and dog IGLC5 constant regions; Expressed in CHO cells) VH: EVQLVESGGDLVKPGGSLRLSCVASGFTFSRYHMSWVRQAPGKGLQWVAYINSGGSDSDYADAVKGRFTISRDNAKNTLYLQMNSLRAEDTAVYYCTSLDYWGQGTLVTVSS VL: SYVLTQLPSKNVTLKQPAHITCGGDNIGSKSVHWYQQKLGQAPVLIIYYDSSRPTGIPERFSGANSGNTATLTISGALAEDEADYYCQVWDRSGNVFGGGTHLTVLG | – | –

Second part, the binder before the results:

Row | Binder | Kd (canine CD20 [1]) [nM] | ADCC EC50 (canine CD20 [2]) [nM] | CDC EC50 (canine CD20 [2]) [nM] | binding result (canine CD20 [3]) | ADCC Maximum killing (%) (canine CD20 [2]) | CDC Maximum killing (%) (canine CD20 [2])
3 | PMX115 mAb (antibody, V domains shown) VH: EMQLVESGGALVKPGGSLRLSCVASGFTFRRYHMSWVRQAPGQGLQWVAYIDSDGSPTSYGDSVKGRFTISRDNAKNTLFLQMNSLRVDDTAVYYCTTLDYWGRGTLVTVSS VL: SYVLTQVPSKSVTLKQPAHITCGGDNIGGKSVHWYQQKLGQAPLLIIYYDTRRPTGIPERFSGANSGNTATLTISRALAEDEADYYCQVWDSSGNVFGGGTHLTVI | 0.8 | – | – | – | – | –
4 | PMX003 mAb (antibody, V domains shown) VH: EVQLVESGGDLVKPGGSLRLSCVASGITFSRYHMSWVRQAPGKGLQWVAYINSGGSSTSYPDAVKGRFTISRDNAKNTLYLQMDSLRAEDTALYYCTTFDYWGQGTLVTVSS VL: SYVLTQLPSKNVTLKQPAHITCGGDNIGSKSVHWYQQKLGQAPVLIIYYDSRRPTGIPERFSGANSGNTATLTISGALAEDEADYYCQVWDSSANVFGGGTHLTVLG | 1.7 | 0.89 | 25 | – | 34 | 90.4
5 | PMX004 mAb (antibody, V domains shown, Fully canine mAb with dog IGGB and dog IGLC5 constant regions; Expressed in CHO cells) VH: EVQLVESGGELVKPGGSLRVSCVASGITFSRYHMSWVRQAPGKGLQWVAFINTDRSSPKYADSVKGRFTISRDNAKNTLYLQMNSLRAEDTAIYYCTSFDYWGQGTLVTVSS VL: SYVLTQLPSKNVTLKQPAHITCGGDNIGSKSVHWYQQKLGQAPVLIIYYDSSRPTGIPERFSGANSGNTATLTISGALAEDEADYYCQVWDSSANVFGGGTHLTVLG | – | – | – | binds | – | –
6 | PMX070 (antibody, V domains shown) VH: EMQLVESGGDLVKPGGSLRLSCVASGFTFSRYHMSWVRQAPGKGLQWVAYINSGGSPTNYADAVKGRFTISRDNAKNTLYLQMNSLRAEDTAVYYCTTYDQWGQGTLVTVSS VL: SYVLTQLPSKSVTLKQPAHITCGGDNIGSKSVHWYQQKLGQAPVLIIYYDSSRPTGIPERFSGANSGNTATLTISGALAEDEADYYCQVWDTSANVFGGGTHLTVL | 1.1 | 0.29 | 11.2 | – | 51 | 97.1
7 | PMX001 mAb (antibody, V domains shown, Fully canine mAb; Expressed in CHO cells) VH: EVQLVESGGDLVKPGGSLRLSCVASGFTFSSYHMSWVRQAPGKGLQWVAYINSGGSSTTYADAVKGRFTISRDNAKKTLYLQMNSLRAEDTAVYYCSTFDYWGQGTLVTVSS VL: SYVLTQLPSRNVTLKQPAHITCGGDNIGSKSVHWYQQKLGQAPVLIIYYDTRRPTGIPERFSGANSGNTATLTISGALAEDEADYYCQVWDSSGNVFGGGTHLTVLG | – | – | – | binds | – | –
